Results reported in patent US20200002439A1 (GENSUN BIOPHARMA, published 2020).

T1: His tagged human Angiopoietin-2 (human, UniProt O15123 19-496, limits assumed)
T1 construct: Antigen of the bio-layer interferometry experiments; also called Ang-2; Ang2
T1 sequence (looked up): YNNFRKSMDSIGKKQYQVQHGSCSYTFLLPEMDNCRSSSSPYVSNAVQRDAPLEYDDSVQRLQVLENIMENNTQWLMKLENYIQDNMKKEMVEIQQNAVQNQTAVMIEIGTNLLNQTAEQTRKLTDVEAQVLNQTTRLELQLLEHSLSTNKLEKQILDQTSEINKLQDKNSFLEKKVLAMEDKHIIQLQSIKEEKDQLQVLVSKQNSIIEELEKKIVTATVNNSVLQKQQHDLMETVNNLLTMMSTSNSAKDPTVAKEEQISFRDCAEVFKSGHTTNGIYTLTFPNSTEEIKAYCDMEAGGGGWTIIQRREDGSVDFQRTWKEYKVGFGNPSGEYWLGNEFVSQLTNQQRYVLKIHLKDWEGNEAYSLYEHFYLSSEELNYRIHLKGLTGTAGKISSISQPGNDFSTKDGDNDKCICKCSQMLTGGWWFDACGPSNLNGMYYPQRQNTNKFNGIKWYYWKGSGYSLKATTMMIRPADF

T2: recombinant human Ang2 (human, UniProt O15123 19-496)
T2 construct: also called Ang2 (R&D)
T2 sequence (looked up): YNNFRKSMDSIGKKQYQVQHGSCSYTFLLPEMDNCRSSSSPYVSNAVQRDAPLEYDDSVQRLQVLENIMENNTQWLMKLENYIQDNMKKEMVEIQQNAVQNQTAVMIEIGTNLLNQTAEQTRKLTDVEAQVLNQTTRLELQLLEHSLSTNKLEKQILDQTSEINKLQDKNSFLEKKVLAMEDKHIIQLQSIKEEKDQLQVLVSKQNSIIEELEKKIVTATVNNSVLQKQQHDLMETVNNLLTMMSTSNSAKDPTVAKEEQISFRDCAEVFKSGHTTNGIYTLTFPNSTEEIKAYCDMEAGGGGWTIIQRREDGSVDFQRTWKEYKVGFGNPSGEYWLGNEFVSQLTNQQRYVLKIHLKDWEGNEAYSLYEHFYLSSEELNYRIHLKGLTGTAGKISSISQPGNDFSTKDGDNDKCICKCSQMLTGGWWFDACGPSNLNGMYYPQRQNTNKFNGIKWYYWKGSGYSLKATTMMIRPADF


Assays:
[1] = molecular target: T3, recombinant human VEGF 165 (human, UniProt P15692-4 27-191); experiment: cell-based or functional assay
T3 sequence (P15692 other isoform, or with tags, fused parts or gaps limits assumed): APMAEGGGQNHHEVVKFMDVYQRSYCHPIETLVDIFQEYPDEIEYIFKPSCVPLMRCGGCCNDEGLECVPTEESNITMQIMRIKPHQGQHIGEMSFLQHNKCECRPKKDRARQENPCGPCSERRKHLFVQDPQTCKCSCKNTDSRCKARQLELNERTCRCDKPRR

[2] = molecular target: T3, recombinant human VEGF 165; experiment: cell-based or functional assay; remark: listed apart in the source
[3] = molecular target: T4, human PD-1 on transfected CHO-K1 cells (human, UniProt Q15116 25-288); experiment: cell-based blocking assay, flow cytometry: binding of FITC labeled human PD-L1-Fc to human PD-1 transfected CHO-K1 cells is blocked
T4 construct: also called Human PD-1 transfected CHO-K1 cells
T4 sequence (Q15116 25-288 limits assumed): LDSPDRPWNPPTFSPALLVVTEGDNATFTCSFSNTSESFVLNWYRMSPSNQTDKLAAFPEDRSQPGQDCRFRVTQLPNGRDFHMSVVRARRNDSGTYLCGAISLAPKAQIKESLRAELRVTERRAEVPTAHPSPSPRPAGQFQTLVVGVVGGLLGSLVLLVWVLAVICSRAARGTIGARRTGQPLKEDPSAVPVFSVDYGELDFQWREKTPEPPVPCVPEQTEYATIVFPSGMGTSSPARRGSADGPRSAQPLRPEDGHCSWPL

[4] = molecular target: T3, recombinant human VEGF 165; experiment: bio-layer interferometry, rhVEGF165
[5] = molecular target: T5, His tagged human PD-1 (human, UniProt Q15116 25-170); experiment: bio-layer interferometry, PD-1-His (R&D)
T5 construct: also called His tagged human PD-I; PD-1 protein
T5 sequence (Q15116 25-170 limits assumed): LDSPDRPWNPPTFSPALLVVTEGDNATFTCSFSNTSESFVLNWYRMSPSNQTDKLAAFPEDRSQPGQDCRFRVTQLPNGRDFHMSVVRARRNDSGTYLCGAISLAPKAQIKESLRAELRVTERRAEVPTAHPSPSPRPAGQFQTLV

[6] = molecular target: T1, His tagged human Angiopoietin-2; experiment: bio-layer interferometry, rhAng2-His
[7] = molecular target: T5, His tagged human PD-1; experiment: bio-layer interferometry, PD-1-His (R&D); column head prints KD (nM) but the cell carries E-09, and Kd/Ka of the same row gives this number in M
[8] = molecular target: T2, recombinant human Ang2; experiment: blocking ELISA: Ang2 coated on the plate, binding of recombinant human Tie2 is blocked

Binder | IC50 (read off the curve) [1] [nM] | IC50 (VEGF-induced luciferase signal, cell based VEGF neutralization assay on VEGFR-2 reporter cells) [2] [nM] | IC50 [3] [nM] | Kd [4] [nM] | koff [4] [s⁻¹] | kon [4] [M⁻¹ s⁻¹] | koff [5] [s⁻¹] | kon [5] [M⁻¹ s⁻¹] | Kd [6] [nM] | koff [6] [s⁻¹] | kon [6] [M⁻¹ s⁻¹] | Kd [7] [nM] | IC50 [8] [nM]
Bi-ZP-2 (bispecific antibody, human IgG1, kappa, N297A) heavy: not shown light: DIQMTQSPSFLSASVGDRVTITCKASQNVGTNVAWYQQKPGKAPKALIYSASYRYSGVPSRFSGSGSGTEFTLTISSLQPEDFATYYCQQYYSYPYTFGQGTKLEIKRTVAAPSVFIFPPSDEQLKSGTASVVCLLNNFYPREAKVQWKVDNALQSGNSQESVTEQDSKDSTYSLSSTLTLSKADYEKHKVYACEVTHQGLSSPVTKSFNRGEC | ~0.1 | 0.14 | – | – | – | – | – | – | – | – | – | – | –
TS-ZPT-3L(2P17) (other) heavy: QVQLVQSGAEVKKPGASVKVSCKASGYTFTSYYIHWVRQAPGQGLEWMGWIFPGSGNSKYNENFKGRVTLTADTSTSTVYMELSSLRSEDTAVYYCASETYDYGDYWGQGTLVTVSSASTKGPSVFPLAPCSRSTSESTAALGCLVKDYFPEPVTVSWNSGALTSGVHTFPAVLQSSGLYSLSSVVTVPSSSLGTKTYTCNVDHKPSNTKVDKRVESKYGPPCPPCPAPEFLGGPSVFLFPPKPKDTLMISRTPEVTCVVVDVSQEDPEVQFNWYVDGVEVHNAKTKPREEQFNSTYRVVSVLTVLHQDWLNGKEYKCKVSNKGLPSSIEKTISKAKGQPREPQVYTLPPSQEEMGGAQQEECEWDPWTCEHMGSGSATGGSGSTASSGSGSATHQEECEWDPWTCEHMGGTKNQVSLTCLVKGFYPSDIAVEWESNGQPENNYKTTPPVLDSDGSFFLYSRLTVDKSRWQEGNVFSCSVMHEALHNHYTQKSLSLSLGKGGGGSGGGGSGGGGSSDTGRPFVEMYSEIPEIIHMTEGRELVIPCRVTSPNITVTLKKFPLDTLIPDGKRIIWDSRKGFIISNATYKEIGLLTCEATVNGHLYKTNYLTHRQTNTIIDVVLSPSHGIELSVGEKLVLNCTARTELNVGIDFNWEYPSSKHQHKKLVNRDLKTQSGSEMKKFLSTLTIDGVTRSDQGLYTCAASSGLMTKKNSTFVRVHEK light: DIQMTQSPSFLSASVGDRVTITCKASQNVGTNVAWYQQKPGKAPKALIYSASYRYSGVPSRFSGSGSGTEFTLTISSLQPEDFATYYCQQYYSYPYTFGQGTKLEIKRTVAAPSVFIFPPSDEQLKSGTASVVCLLNNFYPREAKVQWKVDNALQSGNSQESVTEQDSKDSTYSLSSTLTLSKADYEKHKVYACEVTHQGLSSPVTKSFNRGEC | – | – | 0.65 | 0.0049 | 5e-06 | 1.02e+06 | 0.00147 | 382000 | 0.7 | 9.05e-05 | 130000 | 3.84 | 0.6
TS-ZPT-3S(2P17) (other, Trispecific antagonist: 2P17 variable domains, single copy of the trebananib peptide within CH3, aflibercept domain at the carboxy terminus by a 3xG4S linker) heavy: QVQLVQSGAEVKKPGASVKVSCKASGYTFTSYYIHWVRQAPGQGLEWMGWIFPGSGNSKYNENFKGRVTLTADTSTSTVYMELSSLRSEDTAVYYCASETYDYGDYWGQGTLVTVSSASTKGPSVFPLAPCSRSTSESTAALGCLVKDYFPEPVTVSWNSGALTSGVHTFPAVLQSSGLYSLSSVVTVPSSSLGTKTYTCNVDHKPSNTKVDKRVESKYGPPCPPCPAPEFLGGPSVFLFPPKPKDTLMISRTPEVTCVVVDVSQEDPEVQFNWYVDGVEVHNAKTKPREEQFNSTYRVVSVLTVLHQDWLNGKEYKCKVSNKGLPSSIEKTISKAKGQPREPQVYTLPPSQEEMGGQEECEWDPWTCEHMGGTKNQVSLTCLVKGFYPSDIAVEWESNGQPENNYKTTPPVLDSDGSFFLYSRLTVDKSRWQEGNVFSCSVMHEALHNHYTQKSLSLSLGKGGGGSGGGGSGGGGSSDTGRPFVEMYSEIPEIIHMTEGRELVIPCRVTSPNITVTLKKFPLDTLIPDGKRIIWDSRKGFIISNATYKEIGLLTCEATVNGHLYKTNYLTHRQTNTIIDVVLSPSHGIELSVGEKLVLNCTARTELNVGIDFNWEYPSSKHQHKKLVNRDLKTQSGSEMKKFLSTLTIDGVTRSDQGLYTCAASSGLMTKKNSTFVRVHEK light: DIQMTQSPSFLSASVGDRVTITCKASQNVGTNVAWYQQKPGKAPKALIYSASYRYSGVPSRFSGSGSGTEFTLTISSLQPEDFATYYCQQYYSYPYTFGQGTKLEIKRTVAAPSVFIFPPSDEQLKSGTASVVCLLNNFYPREAKVQWKVDNALQSGNSQESVTEQDSKDSTYSLSSTLTLSKADYEKHKVYACEVTHQGLSSPVTKSFNRGEC | – | – | 0.37 | 0.0052 | 5.03e-06 | 974000 | 0.00146 | 394000 | 0.65 | 8.66e-05 | 134000 | 3.71 | 9.34
TS-ZPT-3S(2P16) (other) chain 1: QVQLVQSGAEVKKPGASVKVSCKASGYTFTTYYIYWVRQAPGQGLEWMGGINPGNGGTNFNEKFKIRVTMTRDTSISTAYMELSSLRSEDTAVYYCARRYHGYDGGLDYWGQGTLVTVSSASTKGPSVFPLAPCSRSTSESTAALGCLVKDYFPEPVTVSWNSGALTSGVHTFPAVLQSSGLYSLSSVVTVPSSSLGTKTYTCNVDHKPSNTKVDKRVESKYGPPCPPCPAPEFLGGPSVFLFPPKPKDTLMISRTPEVTCVVVDVSQEDPEVQFNWYVDGVEVHNAKTKPREEQFNSTYRVVSVLTVLHQDWLNGKEYKCKVSNKGLPSSIEKTISKAKGQPREPQVYTLPPSQEEMGGQEECEWDPWTCEHMGGTKNQVSLTCLVKGFYPSDIAVEWESNGQPENNYKTTPPVLDSDGSFFLYSRLTVDKSRWQEGNVFSCSVMHEALHNHYTQKSLSLSLGKGGGGSGGGGSGGGGSSDTGRPFVEMYSEIPEIIHMTEGRELVIPCRVTSPNITVTLKKFPLDTLIPDGKRIIWDSRKGFIISNATYKEIGLLTCEATVNGHLYKTNYLTHRQTNTIIDVVLSPSHGIELSVGEKLVLNCTARTELNVGIDFNWEYPSSKHQHKKLVNRDLKTQSGSEMKKFLSTLTIDGVTRSDQGLYTCAASSGLMTKKNSTFVRVHEK chain 2: DIVLTQSPASLAVSPGQRATITCRASKSVSTSGFSYIHWYQQKPGQPPKLLIYLASNLESGVPARFSGSGSGTDFTLTINPVEANDTANYYCQHTWELPNTFGGGTKVEIKRTVAAPSVFIFPPSDEQLKSGTASVVCLLNNFYPREAKVQWKVDNALQSGNSQESVTEQDSKDSTYSLSSTLTLSKADYEKHKVYACEVTHQGLSSPVTKSFNRGEC | – | – | 0.43 | 0.0063 | 4.31e-06 | 683000 | 0.00159 | 335000 | – | – | – | 4.76 | –
2P17 (antibody, V domains shown, also called PD-06; parental antibody 2P17) VH: QVQLVQSGAEVKKPGASVKVSCKASGYTFTSYYIHWVRQAPGQGLEWMGWIFPGSGNSKYNENFKGRVTLTADTSTSTVYMELSSLRSEDTAVYYCASETYDYGDYWGQGTLVTVSS VL: DIQMTQSPSFLSASVGDRVTITCKASQNVGTNVAWYQQKPGKAPKALIYSASYRYSGVPSRFSGSGSGTEFTLTISSLQPEDFATYYCQQYYSYPYTFGQGTKLEIK | – | – | 0.37 | – | – | – | – | – | – | – | – | – | –
